Source: the supplement of paper PMC9170038

Tested on: MS2 coat protein
Assay: apparent KD of MS2 coat protein; designed switch direction (-1 OFF switch, 1 ON switch): -1; higher = weaker reporter binding
Method in brief: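 Designed RNA switches sharing common flanks were transcribed on Illumina chips by stalled E. coli RNA polymerase. They were titrated with SNAP-549-labelled MS2 coat protein, from 0.7 or 1.5 nM doubling to 3 µM, in Tris-HCl pH 7.5 buffer with KCl, MgCl2, BSA, DTT, tRNA and Tween-20. Titrations ran without input, with 200 uM small-molecule ligand, or with an oligonucleotide input. The apparent KD of each design is the median over its clusters, after curve-fitting of normalised cluster fluorescence.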

[1] = input ligand: microRNA oligo, concentration not stated
[2] = Eterna round: R95, input ligand: microRNA oligo, concentration not stated
[3] = Eterna round: R95, input ligand: FMN 200 uM
[4] = Eterna round: R95, input ligand: none

Sequence: CAUUAUUAUCGAGGAUAUCGUAUUGAGAUACUAUGAGAAGGCGGGAUAAACAUGAGGAUCACCCAUGUGAGCCUGAUGCUUGUG [Ex NG1 #37] (Eterna round: R96, puzzle: Exclusion NG 1)
- apparent KD of MS2 coat protein (input ligand: FMN 200 uM): 17.4 nM
- apparent KD of MS2 coat protein [1]: 14.3 nM
- apparent KD of MS2 coat protein (input ligand: none): 19.3 nM

Sequence: CCAACGUGAGGAUAUGCAAUGCUAGCGGGAUCUUCUCUCCAACAUGAGGAUCACCCAUGUAGAAGGCGCUGUUG [Eternabot (L1) Solution 38] (Eterna round: R97, puzzle: Exclusion 2)
- apparent KD of MS2 coat protein (input ligand: FMN 200 uM): 198 nM
- apparent KD of MS2 coat protein (input ligand: none): 97.1 nM

Sequence: CCAAGCUACUUCAUUAUCCACAUGAGGAUCACCCAUGUCUUGGCAAUUAUGACCUGCCCGUCAGGAGCUCGUCUUAU [Sensor-V1 #39] (Eterna round: R97, puzzle: Sensor, turn-off variant 1)
- apparent KD of MS2 coat protein (input ligand: FMN 200 uM): 113 nM
- apparent KD of MS2 coat protein (input ligand: none): 55.2 nM

Sequence: CCAAGCUUAUUCAUUAACCACAUGAGGAUCACCCAUGUAUAGGCAAUUAUGACUGGGCUCUGUGGUGCUCGUCUUAU [Sensor-V1 #27] (Eterna round: R97, puzzle: Sensor, turn-off variant 1)
- apparent KD of MS2 coat protein (input ligand: FMN 200 uM): 146 nM
- apparent KD of MS2 coat protein (input ligand: none): 143 nM

Sequence: CCAAGUCCAUAGGAUAUCGACCAGUCCUCUGGAUGAGAAGGAUGAACUUGAGGAUCACCCAAGUGGCCUAAUAC [Eddilesove] (Eterna round: R97, puzzle: Exclusion 6)
- apparent KD of MS2 coat protein (input ligand: FMN 200 uM): 50.1 nM
- apparent KD of MS2 coat protein (input ligand: none): 23.9 nM

Sequence: CCACGACAUGAGGAUCACCCAUGUGAGGAUAUGGCCUGAAAAGCGUGAGCAGUUUCAAUCAGAAGGCGCGUGGG [salish99_ex1_r4_062] (Eterna round: R97, puzzle: Exclusion 1)
- apparent KD of MS2 coat protein (input ligand: FMN 200 uM): 162 nM
- apparent KD of MS2 coat protein (input ligand: none): 62.2 nM

Sequence: CCACUGCAUUGCAGUGUCGACAUGAGGAUCACCCAUGUGUCGCAGGCGCCGAGCUUUCCGCUCGUUACGUAUCGACG [Arorin] (Eterna round: R96, puzzle: Sensor v2, turn-off variant)
- apparent KD of MS2 coat protein (input ligand: FMN 200 uM): 60.3 nM
- apparent KD of MS2 coat protein [1]: 42.1 nM
- apparent KD of MS2 coat protein (input ligand: none): 60.7 nM

Sequence: CCAGCGAGUGUGAGGAUAUGCUGGUCCUUGGAUCAGCAGAAGGCACAUGAGGAUCACCCAUGUGAAAACGUUGG [JL bmx4 3.30] (puzzle: Brourd's mod of Exclusion 4)
- apparent KD of MS2 coat protein [2]: 21.8 nM

Sequence: CCAGCGUAUGUGAGGAUAUGCUGGUCCUUGGAUCAGCAGAAGGCACAUGAGGAUCACCCAUGUGGAAACGUUGA [Mod of JL 2 - Jieux - Brourd's mod of Exclusion 4] (Eterna round: R97, puzzle: Brourd's mod of Exclusion 4)
- apparent KD of MS2 coat protein (input ligand: FMN 200 uM): 44.9 nM
- apparent KD of MS2 coat protein (input ligand: none): 19.9 nM

Sequence: CCAGGCAAUUCCACUUGUAACAUGAGGAUCACCCAUGUGACCUGGUAUCAAGGCAGCUCGUCAUCCCACCAUAUUCA [Eternabot (L1) Solution 23] (Eterna round: R97, puzzle: Sensor, turn-off variant 1)
- apparent KD of MS2 coat protein (input ligand: FMN 200 uM): 18.8 nM
- apparent KD of MS2 coat protein (input ligand: none): 18.4 nM

Sequence: CCAGGCGUCUUUGCUCGUCUUAUUUGGAGAGGACUGAUAACAUGAGGAUCACCCAUGUGUGUGGGAGCGUUGCAGUG [JR_SV3TOV2_Sub020] (puzzle: Sensor v3, turn-off variant 2)
- apparent KD of MS2 coat protein [3]: 86.3 nM
- apparent KD of MS2 coat protein [2]: 161 nM
- apparent KD of MS2 coat protein [4]: 116 nM

Sequence: CCAGGCUGUGUGAGGAUAUGCUGGUCCUUGGAUCAGCAGAAGGCACAUGAGGAUCACCCAUGUGAAGAGCUUGG [JL bmx4 3.23] (puzzle: Brourd's mod of Exclusion 4)
- apparent KD of MS2 coat protein [2]: 15.6 nM

Sequence: CCAGUGUAAGGAUAUCCGUUGCCGGAUAGAUGAUUAACAGCGGAGAAGGUACAUGAGGAUCACCCAUGUGUCCA [Eternabot (L1) Solution 8] (Eterna round: R97, puzzle: Exclusion 4)
- apparent KD of MS2 coat protein (input ligand: FMN 200 uM): 30.9 nM
- apparent KD of MS2 coat protein (input ligand: none): 20.9 nM

Sequence: CCAUAUAACUGAGGAUAUACGCACCACUAACUAGUAGAAGGCAGACAUGAGGAUCACCCAUGUGAUUUCUCAAUAUUAUACAUC [Prohibition 74 - Jieux - Exclusion NG 1] (Eterna round: R96, puzzle: Exclusion NG 1)
- apparent KD of MS2 coat protein (input ligand: FMN 200 uM): 927 nM
- apparent KD of MS2 coat protein [1]: 357 nM
- apparent KD of MS2 coat protein (input ligand: none): 775 nM

Sequence: CCAUCGAGUGUGAGGAUAUGCUGGUCCUUGGAUCAGCAGAAGGCACAUGAGGAUCACCCAUGUGGAAACGGUGG [Mat - Exclusion 4 - JL Mod - D77] (puzzle: Brourd's mod of Exclusion 4)
- apparent KD of MS2 coat protein [2]: 27.7 nM

Sequence: CCAUGUUAGCAGGAUAUGCAAUAAAUCUUUUAAGCAGAAGGGCUUACAUGAGGAUCACCCAUGUAUAAAGUCAA [JR_E6_Sub079] (puzzle: Exclusion 6)
- apparent KD of MS2 coat protein [2]: 19.9 nM

Sequence: CCCACAUGAGGAUAUCCAUCUGGAUCAGACAAGAUCCUGAUGGAGAAGGUACAUGAGGAUCACCCAUGUGUGGG [Mat - Exclusion 4 - Eli Mod - D60] (Eterna round: R97, puzzle: Exclusion 4)
- apparent KD of MS2 coat protein (input ligand: FMN 200 uM): 189 nM
- apparent KD of MS2 coat protein (input ligand: none): 267 nM

Sequence: CCCACCAGAGGAUAUGCGCAUAGAUCAGACUUUGUUUCUGAACAUGAGGAUCACCCAUGUAGAAGGCUGUAACC [Ex2 #87] (Eterna round: R97, puzzle: Exclusion 2)
- apparent KD of MS2 coat protein (input ligand: FMN 200 uM): 25.2 nM
- apparent KD of MS2 coat protein (input ligand: none): 24.3 nM

Sequence: CCCAUGUCAGGAUAUCUAAGAGAGGGCCAGCCCUCUCCUCCGGAGAAGGGACAUGAGGAUCACCCAUGUAAAAC [Biedle] (puzzle: Exclusion 4)
- apparent KD of MS2 coat protein [2]: 93.3 nM

Sequence: CCCGCGCGUGUAGGAUAUGGCUCGGUGUCUGGGCCAGAAGGACAUGAGGAUCACCCAUGUCUGCGGGUGUGGGCGUGGUUUGGG [-36, -33 kcal A 14%] (Eterna round: R96, puzzle: Exclusion NG 1)
- apparent KD of MS2 coat protein (input ligand: FMN 200 uM): 91.8 nM
- apparent KD of MS2 coat protein [1]: 18.6 nM
- apparent KD of MS2 coat protein (input ligand: none): 27.2 nM

Sequence: CCCUCAAGCGAGGAUAUAAAUGCGCAUUCGCGGUUAGAAGGCGCUACAUGAGGAUCACCCAUGUAAUUGAAUGG [jl-ex6-4.52 ViennaUCT mod] (Eterna round: R97, puzzle: Exclusion 6)
- apparent KD of MS2 coat protein (input ligand: FMN 200 uM): 117 nM
- apparent KD of MS2 coat protein (input ligand: none): 58.7 nM

Sequence: CCGAAAUCCUAGGAUAUGCUAGACGAAAGUCUAGCAGAAGGAGGAACAUGAGGAUCACCCAUGUGUCCUAUCGG [Mat - Exclusion 6 - Eli Mod - D30] (Eterna round: R97, puzzle: Exclusion 6)
- apparent KD of MS2 coat protein (input ligand: FMN 200 uM): 23.1 nM
- apparent KD of MS2 coat protein (input ligand: none): 15.8 nM

Sequence: CCGACGUGAGGAUAUCCAUCUGGAUCAGACUAGAUCCUGAUGGAGAAGGCACAUGAGGAUCACCCAUGUUACGG [Eli 4x 4.41] (Eterna round: R97, puzzle: Exclusion 4)
- apparent KD of MS2 coat protein (input ligand: FMN 200 uM): 909 nM
- apparent KD of MS2 coat protein (input ligand: none): 524 nM

Sequence: CCGACUCAAGGAUAUUGUACUGCUGACAUGAGGAUCACCCAUGUAUGUUAACUCGGCCGACGAGAAGGUGACGACA [BotMod 1 - Jieux - Exclusion 5] (Eterna round: R97, puzzle: Exclusion 5)
- apparent KD of MS2 coat protein (input ligand: FMN 200 uM): 39.6 nM
- apparent KD of MS2 coat protein (input ligand: none): 43.1 nM

Sequence: CCGAGGUAGCGGUCCUAUGACAUGAGGAUCACCCAUGUACCUCGCUACGAGCUUUUUGCUCGUCUUAUAAUUCUCGG [JL Atriat mod 1] (puzzle: Sensor v3, turn-off variant 1)
- apparent KD of MS2 coat protein [3]: 55.2 nM
- apparent KD of MS2 coat protein [2]: 229 nM
- apparent KD of MS2 coat protein [4]: 73.6 nM

Sequence: CCGCAACAUGAGGAUCACCCAUGUCAGGAUAUCGUACGUUCGUCGAAAGACGAUCGUACGAGAAGGGUGUGCGG [Eli x1 4.36] (Eterna round: R97, puzzle: Exclusion 1)
- apparent KD of MS2 coat protein (input ligand: FMN 200 uM): 79.8 nM
- apparent KD of MS2 coat protein (input ligand: none): 110 nM

Sequence: CCGCAUAAGCAGGAUAUCGUAUCGGAAACGAUACGAGAAGGGUUAACAUGAGGAUCACCCAUGUUCCUUAACGG [Fiskers Ex 6 - 30] (puzzle: Exclusion 6)
- apparent KD of MS2 coat protein [2]: 17.5 nM

Sequence: CCGCUCCGUGUAGGAUAUUGGCCUGCUCUGGGUCGAGAAGGACAUGAGGAUCACCCAUGUAUGUUAUUAUCACGCGUGGCGCAU [Design 80] (Eterna round: R96, puzzle: Exclusion NG 1)
- apparent KD of MS2 coat protein (input ligand: FMN 200 uM): 41.8 nM
- apparent KD of MS2 coat protein [1]: 18.9 nM
- apparent KD of MS2 coat protein (input ligand: none): 29.3 nM

Sequence: CCGCUGUGAGGAUAUUAGUAGUAGUCAGAAAAGACUAUUACUGAGAAGGCACAUGAGGAUCACCCAUGUCGCGG [Mat - Exclusion 4 - Eli Mod - D49] (Eterna round: R97, puzzle: Exclusion 4)
- apparent KD of MS2 coat protein (input ligand: FMN 200 uM): 39.7 nM
- apparent KD of MS2 coat protein (input ligand: none): 28.8 nM

Sequence: CCGGAAAGGAAGGAUAUGCUAGACGAAAGUCUAGCAGAAGGUCCUACAUGAGGAUCACCCAUGUGUCCUCCCGG [Eli x6 4.08] (Eterna round: R97, puzzle: Exclusion 6)
- apparent KD of MS2 coat protein (input ligand: FMN 200 uM): 2270 nM
- apparent KD of MS2 coat protein (input ligand: none): 270 nM

Sequence: CCGGAAAGGAAGGAUAUGCUAGACGAUAGUCUAGCAGAAGGUCCUACAUGAGGAUCACCCAUGUGUCCUCCCGG [Mat - Exclusion 6 - Eli Mod - D43] (Eterna round: R97, puzzle: Exclusion 6)
- apparent KD of MS2 coat protein (input ligand: FMN 200 uM): 1260 nM
- apparent KD of MS2 coat protein (input ligand: none): 182 nM

Sequence: CCGGAAGUAGAGGAUAUCGUAUCGGAUACGAUACGAGAAGGCUAUACAUGAGGAUCACCCAUGUGUCCUACCGG [Fiskers Ex 6 - 5] (puzzle: Exclusion 6)
- apparent KD of MS2 coat protein [2]: 21.4 nM

Sequence: CCGGCCGCCGUGAGGAUAUGCCCGCGCGCCCGCGGGCAGAAGGCACAUGAGGAUCACCCAUGUCCCGCGGUCCC [salish99_bmx4_r4_123] (Eterna round: R97, puzzle: Brourd's mod of Exclusion 4)
- apparent KD of MS2 coat protein (input ligand: FMN 200 uM): 35.8 nM
- apparent KD of MS2 coat protein (input ligand: none): 15.6 nM

Sequence: CCGGCUGCUGUGAGGAUAUGCCCGCGCGCCCGCGGGCAGAAGGCACAUGAGGAUCACCCAUGUCCUGCGGUCCC [salish99_bmx4_r4_120] (Eterna round: R97, puzzle: Brourd's mod of Exclusion 4)
- apparent KD of MS2 coat protein (input ligand: FMN 200 uM): 122 nM
- apparent KD of MS2 coat protein (input ligand: none): 24.1 nM
